How the values were obtained:
Gluc1-E2F4 = Gluc1-E2F4 (human, UniProt Q16254 1-413); assay: split reporter
Gluc1-ΔNp73α FL = target: T1, Gluc1-ΔNp73α FL (UniProt O15350-8 1-587); assay: split reporter
T1 sequence (looked up): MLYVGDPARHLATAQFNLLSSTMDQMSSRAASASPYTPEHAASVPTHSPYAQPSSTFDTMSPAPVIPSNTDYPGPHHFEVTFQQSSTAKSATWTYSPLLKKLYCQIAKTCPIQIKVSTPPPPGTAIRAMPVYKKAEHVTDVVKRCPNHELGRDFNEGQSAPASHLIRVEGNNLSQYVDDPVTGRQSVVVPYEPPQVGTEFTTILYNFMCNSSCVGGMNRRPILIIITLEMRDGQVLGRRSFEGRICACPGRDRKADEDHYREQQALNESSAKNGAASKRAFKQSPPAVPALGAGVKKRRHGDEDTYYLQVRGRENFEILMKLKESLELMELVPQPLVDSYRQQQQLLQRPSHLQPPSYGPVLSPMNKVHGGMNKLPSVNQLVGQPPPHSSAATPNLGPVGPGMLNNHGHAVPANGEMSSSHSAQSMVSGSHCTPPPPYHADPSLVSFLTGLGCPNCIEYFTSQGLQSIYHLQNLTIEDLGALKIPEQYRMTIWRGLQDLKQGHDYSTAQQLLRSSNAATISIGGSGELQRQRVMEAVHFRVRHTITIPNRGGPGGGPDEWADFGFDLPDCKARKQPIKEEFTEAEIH

Gluc1-TAp73α = target: T2, Gluc1-TAp73α (UniProt O15350 1-636); assay: split reporter
T2 sequence (looked up): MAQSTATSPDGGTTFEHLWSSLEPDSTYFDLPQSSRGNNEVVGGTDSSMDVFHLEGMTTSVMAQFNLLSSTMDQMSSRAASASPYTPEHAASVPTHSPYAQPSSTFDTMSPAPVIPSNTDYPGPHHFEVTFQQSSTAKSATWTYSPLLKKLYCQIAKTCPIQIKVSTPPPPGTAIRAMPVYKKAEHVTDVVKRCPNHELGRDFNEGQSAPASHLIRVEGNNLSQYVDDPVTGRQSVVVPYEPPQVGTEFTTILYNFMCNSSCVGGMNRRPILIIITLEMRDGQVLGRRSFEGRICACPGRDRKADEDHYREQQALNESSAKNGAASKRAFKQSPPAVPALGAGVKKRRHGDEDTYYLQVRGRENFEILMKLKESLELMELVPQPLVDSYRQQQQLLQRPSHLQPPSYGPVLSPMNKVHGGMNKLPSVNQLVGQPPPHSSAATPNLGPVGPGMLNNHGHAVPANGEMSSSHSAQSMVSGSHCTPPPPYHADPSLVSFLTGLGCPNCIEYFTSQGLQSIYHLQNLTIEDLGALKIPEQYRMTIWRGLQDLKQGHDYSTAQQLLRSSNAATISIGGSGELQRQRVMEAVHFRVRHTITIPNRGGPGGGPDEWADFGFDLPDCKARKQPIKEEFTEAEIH

Gluc1-ΔN(74–348) = target: T3, Gluc1-ΔN(74–348) (UniProt O15350-8 74-348); assay: split reporter
T3 sequence (looked up): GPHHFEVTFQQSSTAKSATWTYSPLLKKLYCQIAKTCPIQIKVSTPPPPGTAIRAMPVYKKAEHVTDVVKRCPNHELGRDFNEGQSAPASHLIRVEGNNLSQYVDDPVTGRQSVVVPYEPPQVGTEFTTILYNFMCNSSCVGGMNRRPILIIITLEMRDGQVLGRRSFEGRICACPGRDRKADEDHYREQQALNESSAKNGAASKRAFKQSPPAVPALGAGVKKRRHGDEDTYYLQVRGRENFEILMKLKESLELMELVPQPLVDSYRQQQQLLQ

[1] = target: T4, minimal E2F4/DP1 heterodimer (E2F4s/DP1s) (human, UniProt Q16254 84-413; Q14186 199-350); assay: pull-down
T4 sequence (looked up) 1: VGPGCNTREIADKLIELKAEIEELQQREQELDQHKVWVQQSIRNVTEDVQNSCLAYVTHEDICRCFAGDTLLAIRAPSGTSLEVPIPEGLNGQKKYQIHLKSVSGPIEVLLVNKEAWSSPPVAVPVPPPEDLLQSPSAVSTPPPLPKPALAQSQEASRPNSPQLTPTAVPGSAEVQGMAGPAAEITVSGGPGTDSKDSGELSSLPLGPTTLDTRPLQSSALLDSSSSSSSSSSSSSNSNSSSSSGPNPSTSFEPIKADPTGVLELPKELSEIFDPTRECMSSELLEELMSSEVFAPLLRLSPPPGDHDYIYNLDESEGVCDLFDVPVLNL
T4 sequence (looked up) 2: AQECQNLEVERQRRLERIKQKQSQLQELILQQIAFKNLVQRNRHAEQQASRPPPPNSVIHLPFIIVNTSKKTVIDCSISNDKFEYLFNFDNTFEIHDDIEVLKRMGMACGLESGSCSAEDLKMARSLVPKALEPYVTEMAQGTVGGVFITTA

B1: Gluc2-DP1 (natural protein, human, UniProt Q14186 1-410, looked up)
chain: MAKDAGLIEANGELKVFIDQNLSPGKGVVSLVAVHPSTVNPLGKQLLPKTFGQSNVNIAQQVVIGTPQRPAASNTLVVGSPHTPSTHFASQNQPSDSSPWSAGKRNRKGEKNGKGLRHFSMKVCEKVQRKGTTSYNEVADELVAEFSAADNHILPNESAYDQKNIRRRVYDALNVLMAMNIISKEKKEIKWIGLPTNSAQECQNLEVERQRRLERIKQKQSQLQELILQQIAFKNLVQRNRHAEQQASRPPPPNSVIHLPFIIVNTSKKTVIDCSISNDKFEYLFNFDNTFEIHDDIEVLKRMGMACGLESGSCSAEDLKMARSLVPKALEPYVTEMAQGTVGGVFITTAGSTSNGTRFSASDLTNGADGMLATSSNGSQYSGSRVETPVSYVGEDDEEDDDFNENDEDD
Gluc1-E2F4
  normalized luminescence ratio (NLR): ~500

B2: Gluc2-E2F4 FL (natural protein)
chain: not shown
Gluc1-ΔNp73α FL
  normalized luminescence ratio (NLR): > 20
Gluc1-TAp73α
  binding response relative to ΔNp73α: ~50%
Gluc1-ΔN(74–348)
  binding relative to ΔNp73α FL/E2F4 FL: 60%

B3: Gluc2-E2F(1–336) (domain or fragment)
chain: not shown
Gluc1-ΔNp73α FL
  binding relative to ΔNp73α FL/E2F4 FL: 60%

B4: Gluc2-E2F(1–90) (domain or fragment)
chain: not shown
Gluc1-ΔNp73α FL
  binding relative to ΔNp73α FL/E2F4 FL: 20%

B5: MBP-ΔN(1-348) (domain or fragment, UniProt O15350-8 1-348, looked up)
chain: MLYVGDPARHLATAQFNLLSSTMDQMSSRAASASPYTPEHAASVPTHSPYAQPSSTFDTMSPAPVIPSNTDYPGPHHFEVTFQQSSTAKSATWTYSPLLKKLYCQIAKTCPIQIKVSTPPPPGTAIRAMPVYKKAEHVTDVVKRCPNHELGRDFNEGQSAPASHLIRVEGNNLSQYVDDPVTGRQSVVVPYEPPQVGTEFTTILYNFMCNSSCVGGMNRRPILIIITLEMRDGQVLGRRSFEGRICACPGRDRKADEDHYREQQALNESSAKNGAASKRAFKQSPPAVPALGAGVKKRRHGDEDTYYLQVRGRENFEILMKLKESLELMELVPQPLVDSYRQQQQLLQ
[1]
  binding result: binds

Source: doi:10.1101/2022.10.27.514150 (bioRxiv, 2022)
